From the supplement of paper PMC9112550, “Optimization of the antimicrobial peptide Bac7 by deep mutational scanning” (BMC Biology, 2022) come the findings set out here.

The data set has as its system Escherichia coli TOP10. The experiment in a line: shrunken log2 fold change of peptide-encoding DNA abundance (4.5 h post-induction vs induction); higher = less antimicrobial activity (less host growth inhibition). To be noted: time post-induction: 4.5 h; library: site-saturation at positions 5, 18, 19, 20.
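Also: peptides expressed intracellularly from a pBAD plasmid library in pooled LB shake-flask culture, induced with 0.3% L-arabinose, DNA abundance read by NGS, three biological replicates, DESeq2 with apeglm shrinkage.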

Turning to RRIRTRPPRLPRPRPRPIERPRP, the “shrunken log2 fold change” value amounted to 0.107.

In the case of RRIRIRPPRLPRPRPRPATFPRP, the “shrunken log2 fold change” value is -0.658.

For the sequence RRIRLRPPRLPRPRPRPIPAPRP, the “shrunken log2 fold change” value is -0.112.

As to RRIRIRPPRLPRPRPRPNFRPRP, the “shrunken log2 fold change” value was -0.297.

Consider RRIRPRPPRLPRPRPRPEHPPRP, for which the “shrunken log2 fold change” value was determined as 0.231.

With RRIRHRPPRLPRPRPRPCVIPRP, the “shrunken log2 fold change” value is -0.0839.

Take RRIRYRPPRLPRPRPRPRCLPRP: the “shrunken log2 fold change” value was -0.0564.

Regarding RRIRHRPPRLPRPRPRPMRMPRP, the “shrunken log2 fold change” value is -0.00476.

For RRIRCRPPRLPRPRPRPEIQPRP, the “shrunken log2 fold change” value was determined as 0.141.

In the case of RRIRARPPRLPRPRPRPLARPRP, the “shrunken log2 fold change” value stood at 0.81.

Regarding RRIRLRPPRLPRPRPRPKGIPRP, the “shrunken log2 fold change” value was -0.0776.

On to RRIRERPPRLPRPRPRPIRPPRP, for which the “shrunken log2 fold change” value was -0.0241.

For the sequence RRIRPRPPRLPRPRPRPSCHPRP, the “shrunken log2 fold change” value was -0.31.

RRIRYRPPRLPRPRPRPNQEPRP: the “shrunken log2 fold change” value stood at 0.000655.

For RRIRMRPPRLPRPRPRPDQTPRP, the “shrunken log2 fold change” value is 0.0101.

Turning to RRIRIRPPRLPRPRPRPGVFPRP, the “shrunken log2 fold change” value is 0.292.

Consider RRIRSRPPRLPRPRPRPCIHPRP, for which the “shrunken log2 fold change” value is -1.37.

Take RRIRPRPPRLPRPRPRPRDKPRP: the “shrunken log2 fold change” value stood at 0.144.

For RRIRKRPPRLPRPRPRPEMWPRP, the “shrunken log2 fold change” value turned out to be 0.719.

Turning to RRIRLRPPRLPRPRPRPRMAPRP, the “shrunken log2 fold change” value turned out to be 0.39.

On to RRIRTRPPRLPRPRPRPNCDPRP, for which the “shrunken log2 fold change” value came to 1.31.

In the case of RRIRHRPPRLPRPRPRPCDKPRP, the “shrunken log2 fold change” value is -0.113.

For RRIRNRPPRLPRPRPRPVEEPRP, the “shrunken log2 fold change” value is 0.0471.

Consider RRIRGRPPRLPRPRPRPTDFPRP, for which the “shrunken log2 fold change” value came out at 0.161.

As to RRIRSRPPRLPRPRPRPNNIPRP, the “shrunken log2 fold change” value is -0.564.

As for RRIRWRPPRLPRPRPRPFWRPRP, the “shrunken log2 fold change” value was found to be 0.111.

Consider RRIRDRPPRLPRPRPRPHCAPRP, for which the “shrunken log2 fold change” value was determined as 0.143.

On to RRIRVRPPRLPRPRPRPFQPPRP, for which the “shrunken log2 fold change” value was -0.152.

Consider RRIRQRPPRLPRPRPRPDCSPRP, for which the “shrunken log2 fold change” value was found to be 0.0489.

For RRIRHRPPRLPRPRPRPCNFPRP, the “shrunken log2 fold change” value is -0.74.

With RRIRGRPPRLPRPRPRPCWCPRP, the “shrunken log2 fold change” value stood at 0.171.

As to RRIRWRPPRLPRPRPRPASQPRP, the “shrunken log2 fold change” value stood at 0.271.

Turning to RRIRKRPPRLPRPRPRPFFKPRP, the “shrunken log2 fold change” value is 0.0178.

On to RRIRQRPPRLPRPRPRPMPPPRP, for which the “shrunken log2 fold change” value came to 0.517.

As to RRIRMRPPRLPRPRPRPASCPRP, the “shrunken log2 fold change” value is 0.629.

On to RRIRERPPRLPRPRPRPKTHPRP, for which the “shrunken log2 fold change” value was -0.392.

Regarding RRIRIRPPRLPRPRPRPKKRPRP, the “shrunken log2 fold change” value is -0.169.

As to RRIRVRPPRLPRPRPRPSNPPRP, the “shrunken log2 fold change” value is -0.454.

Regarding RRIRYRPPRLPRPRPRPDSAPRP, the “shrunken log2 fold change” value is -0.378.

As for RRIRRRPPRLPRPRPRPHHDPRP, the “shrunken log2 fold change” value was -0.298.

On to RRIRFRPPRLPRPRPRPYFTPRP, for which the “shrunken log2 fold change” value was -1.09.

Consider RRIRKRPPRLPRPRPRPDKNPRP, for which the “shrunken log2 fold change” value worked out at 0.159.

RRIRKRPPRLPRPRPRPDWFPRP: the “shrunken log2 fold change” value came out at 0.178.

RRIRIRPPRLPRPRPRPSQFPRP: the “shrunken log2 fold change” value is -0.604.

RRIRDRPPRLPRPRPRPGQPPRP: the “shrunken log2 fold change” value is -0.181.

RRIRCRPPRLPRPRPRPIGIPRP: the “shrunken log2 fold change” value was -0.303.

For the sequence RRIRHRPPRLPRPRPRPMKNPRP, the “shrunken log2 fold change” value was found to be 0.0372.

In the case of RRIRCRPPRLPRPRPRPHPFPRP, the “shrunken log2 fold change” value is -0.0728.

For the sequence RRIRLRPPRLPRPRPRPENKPRP, the “shrunken log2 fold change” value was -0.328.

RRIRMRPPRLPRPRPRPQQGPRP: the “shrunken log2 fold change” value is -0.121.
